Experiments:
[1] = target: P18-I10/H2-D^d, BirA-tagged and biotinylated (mouse | not stated); test: SPR
[2] = target: P18-I10/H2-D^d (peptide-loaded MHC class I with β2m) (mouse | not stated); test: AUC

Which Kd [1] does the source give for “B4.2.3 TCR, soluble disulfide-linked αβ heterodimer (extracellular portions)” here?
The Kd was 0.54 µM.

And the Kd [2]?
Its Kd is 0.23 µM.

And the stoichiometry N [2]?
The stoichiometry N was 1.
